In publication PMC12395675:

B1: spike (S) protein: N1232Q (protein)
parent chain: MKSLTYFWLFLPVLSTLSLPQDVTRCSANTNFRRFFSKFNVQAPAVVVLGGYLPIGENQGVNSTWYCAGQHPTASGVHGIFVSHIRGGHGFEIGISQEPFDPSGYQLYLHKATNGNTNATARLRICQFPSIKTLGPTANNDVTTGRNCLFNKAIPAHMSEHSVVGITWDNDRVTVFSDKIYYFYFKNDWSRVATKCYNSGGCAMQYVYEPTYYMLNVTSAGEDGISYQPCTANCIGYAANVFATEPNGHIPEGFSFNNWFLLSNDSTLVHGKVVSNQPLLVNCLLAIPKIYGLGQFFSFNQTIDGVCNGAAVQRAPEALRFNINDTSVILAEGSIVLHTALGTNFSFVCSNSSDPHLATFATPLGATQVPYYCFLKVDTYNSTVYKFLAILPPTVREIVITKYGDFYVNGFGYLHLGLLDAVTINFTGHGTDDDVSGFWTIASTNFVDALIEVQGTAIQRILYCDDPVSQLKCSQVSFDLDDGFYPISSRNLLSHEQPISFVTLPSFNDHSFVNITVSASFGGHSGANLIASDTTINGFSSFCVETRQFTISLFYNVTNSYGYVSKSQDSNCPFTLQSVNDYLSFSKFCVSTSLLASACTIDLFGYPEFGSGVKFTSLYFQFTKGELITGTPKPLVGVTDVSFMTLDVCTKYTIYGFKGEGIITLTNSSFLAGIYYTSDSGQLLAFKNVTSGAVYSVTPCSFSEQAAYVDDDIVGVISSLSNSTFNSTRELPGFFYHSNDGSNCTEPVLVYSNIGVCKSGSIGYVLSKSGQVKIAPTVTGNISIPTNFSMSIRTEYLQLYNTPVSVDCATYVCNGNSRCKQLLTQYIAACKTIESALQLSARLESAEVNSMLTISEEALQLATISSFNGDGYNFTNVLGVSVRDPASGRVVQKRSFIEDLLFNKVVTNGLGTVDEDYKRCSNGRSVADLVCAQYYSGVMVLPGVVDAEKLHMYSASLIGGMVLGGFTAAAALPFSYAVQARLNYLALQTDVLQRNQQLLAESFNSAIGDITSAFESVKEAISQTSKGLNTVAHALTKVQEVVNSQGAALTQLTVQLQHNFQAISSSIDDIYSRLDILSADVQVDRLITGRLSALNAFVAQTLTKYTEVQASRKLAQQKVNECVKSQSQRYGFCGGDGEHIFSLVQAAPQGLLFLHTVLVPGDFVDVIAIAGLCVNDEIALTLREPGLVLFTHELQNHTATEYFVSSRRMFEPRKPTVSDFVQIESCVVTYVNLTRDQLPDVIPDYIDVNKTLYEILASLPNRTGPSLPLDVFNATYLNLTGEIADLEQRSESLRNTTEELQSLIYNINNTLVDLEWLNRVETYIKWPWWVWLIIFIVLIFVVSLLVFCCISTGCCGCCGCCGACFAGCCRGPRLQPYEAFEKVHVQ
B2: spike (S) protein: N1249Q (protein)
parent chain: B1 parent chain
B3: spike (S) protein: N118Q (protein)
parent chain: B1 parent chain
B4: spike (S) protein: N216Q (protein)
parent chain: B1 parent chain
B5: spike (S) protein: N726Q (protein)
parent chain: B1 parent chain
B6: spike (S) protein: N514Q (protein)
parent chain: B1 parent chain
B7: spike (S) protein: N324Q (protein)
parent chain: B1 parent chain
B8: spike (S) protein: N556Q (protein)
parent chain: B1 parent chain
B9: spike (S) protein: N381Q (protein)
parent chain: B1 parent chain
B10: spike (S) protein: N1278Q (protein)
parent chain: B1 parent chain
B11: spike (S) protein: N1196Q (protein)
parent chain: B1 parent chain
B12: spike (S) protein: N688Q (protein)
parent chain: B1 parent chain
B13: spike (S) protein: N781Q (protein)
parent chain: B1 parent chain
B14: spike (S) protein: N344Q (protein)
parent chain: B1 parent chain
B15: spike (S) protein: N351Q (protein)
parent chain: B1 parent chain
B16: spike (S) protein: N1261Q (protein)
parent chain: B1 parent chain
B17: spike (S) protein: N62Q (protein)
parent chain: B1 parent chain
B18: spike (S) protein: N743Q (protein)
parent chain: B1 parent chain
B19: spike (S) protein: N300Q (protein)
parent chain: B1 parent chain
B20: spike (S) protein: N425Q (protein)
parent chain: B1 parent chain
B21: spike (S) protein: N873Q (protein)
parent chain: B1 parent chain

Assay: RT-qPCR of rectal swabs
Details: glycan lost; control: rPEDV-WT

Question: For B1, which “other: faecal viral shedding” value is on record?
Answer: decreases

Question: With B2 as the protein, how does the “other: faecal viral shedding” value read?
Answer: decreases

Assay: viral titre in LLC-PK1 cells
Details: glycan lost; control: rPEDV-WT

Question: Which “other: viral replication” value does the source give for B1 here?
Answer: decreases

Question: With B3 as the protein, how does the “other: viral replication” value read?
Answer: decreases

Question: For B4, which “other: viral replication” value is on record?
Answer: decreases

Question: Which “other: viral replication” value does the source give for B2 here?
Answer: decreases

Question: For B5, which “other: viral replication” value is on record?
Answer: decreases

Assay: 4 °C binding, RT-qPCR of PEDV N
Details: glycan lost; control: rPEDV-WT

Question: Which “other: viral attachment” value does the source give for B1 here?
Answer: no change

Question: For B3, which “other: viral attachment” value is on record?
Answer: decreases

Question: Which “other: viral attachment” value does the source give for B2 here?
Answer: no change

Assay: plaque morphology assay, ImageJ
Details: glycan lost; control: rPEDV-WT

Question: For B1, which “other: plaque size” value is on record?
Answer: decreases

Question: For B3, which “other: plaque size” value is on record?
Answer: decreases

Question: For B4, which “other: plaque size” value is on record?
Answer: decreases

Question: For B2, which “other: plaque size” value is on record?
Answer: decreases

Question: With B5 as the protein, how does the “other: plaque size” value read?
Answer: decreases

Assay: viral titre at 24 hpi, MOI 0.01
Details: glycan lost; control: rPEDV-WT

Question: With B6 as the protein, how does the “other: viral replication” value read?
Answer: no change

Question: Which “other: viral replication” value does the source give for B7 here?
Answer: no change

Question: With B8 as the protein, how does the “other: viral replication” value read?
Answer: no change

Question: With B1 as the protein, how does the “other: viral replication” value read?
Answer: decreases

Question: With B3 as the protein, how does the “other: viral replication” value read?
Answer: decreases

Question: For B9, which “other: viral replication” value is on record?
Answer: no change

Question: For B10, which “other: viral replication” value is on record?
Answer: no change

Question: Which “other: viral replication” value does the source give for B11 here?
Answer: no change

Question: For B4, which “other: viral replication” value is on record?
Answer: decreases

Question: With B12 as the protein, how does the “other: viral replication” value read?
Answer: no change

Question: Which “other: viral replication” value does the source give for B13 here?
Answer: no change

Question: For B2, which “other: viral replication” value is on record?
Answer: decreases

Question: With B14 as the protein, how does the “other: viral replication” value read?
Answer: no change

Question: Which “other: viral replication” value does the source give for B15 here?
Answer: no change

Question: With B16 as the protein, how does the “other: viral replication” value read?
Answer: no change

Question: With B17 as the protein, how does the “other: viral replication” value read?
Answer: no change

Question: For B18, which “other: viral replication” value is on record?
Answer: no change

Question: For B19, which “other: viral replication” value is on record?
Answer: no change

Question: With B5 as the protein, how does the “other: viral replication” value read?
Answer: decreases

Assay: H&E staining of intestine at 5 dpc
Details: glycan lost; control: rPEDV-WT

Question: Which “other: intestinal histopathology” value does the source give for B1 here?
Answer: abolishes

Question: Which “other: intestinal histopathology” value does the source give for B2 here?
Answer: abolishes

Assay: 37 °C 30 min, citrate wash, RT-qPCR
Details: glycan lost; control: rPEDV-WT

Question: Which “other: viral internalization” value does the source give for B1 here?
Answer: decreases

Question: With B3 as the protein, how does the “other: viral internalization” value read?
Answer: decreases

Question: Which “other: viral internalization” value does the source give for B4 here?
Answer: decreases

Assay: RT-qPCR of intestinal tissues at 5 dpc
Details: glycan lost; control: rPEDV-WT

Question: With B1 as the protein, how does the “other: intestinal viral load” value read?
Answer: decreases

Question: With B3 as the protein, how does the “other: intestinal viral load” value read?
Answer: no change

Question: Which “other: intestinal viral load” value does the source give for B4 here?
Answer: no change

Question: With B2 as the protein, how does the “other: intestinal viral load” value read?
Answer: decreases

Question: For B5, which “other: intestinal viral load” value is on record?
Answer: no change

Assay: CHX chase, anti-Flag western blot, 293T
Details: glycan lost; control: WT S protein

Question: Which degradation_or_half_life does the source give for B1 here?
Answer: no change

Question: For B3, which degradation_or_half_life is on record?
Answer: no change

Question: With B4 as the protein, how does the degradation_or_half_life read?
Answer: no change

Question: For B2, which degradation_or_half_life is on record?
Answer: no change

Question: Which degradation_or_half_life does the source give for B5 here?
Answer: no change

Assay: oral challenge; fecal scores, gross necropsy
Details: glycan lost; control: rPEDV-WT

Question: For B1, which “other: virulence in animals” value is on record?
Answer: decreases

Question: With B3 as the protein, how does the “other: virulence in animals” value read?
Answer: decreases

Question: For B4, which “other: virulence in animals” value is on record?
Answer: decreases

Question: With B2 as the protein, how does the “other: virulence in animals” value read?
Answer: decreases

Question: For B5, which “other: virulence in animals” value is on record?
Answer: decreases

Assay: BAC transfection of Vero cells; CPE, western blot
Details: glycan lost; control: rPEDV-WT

Question: For B6, which “other: virus rescue (viability), other: viruses recovered/attempts” value (from here on “other … viruses recovered/attempts”) is on record?
Answer: no change

Question: Which “other … viruses recovered/attempts” value does the source give for B7 here?
Answer: no change

Question: Which “other … viruses recovered/attempts” value does the source give for B8 here?
Answer: no change

Question: With B1 as the protein, how does the “other … viruses recovered/attempts” value read?
Answer: no change

Question: For B20, which “other … viruses recovered/attempts” value is on record?
Answer: abolishes

Question: With B3 as the protein, how does the “other … viruses recovered/attempts” value read?
Answer: no change

Question: With B9 as the protein, how does the “other … viruses recovered/attempts” value read?
Answer: no change

Question: Which “other … viruses recovered/attempts” value does the source give for B10 here?
Answer: no change

Question: Which “other … viruses recovered/attempts” value does the source give for B21 here?
Answer: abolishes

Question: For B11, which “other … viruses recovered/attempts” value is on record?
Answer: no change

Question: For B4, which “other … viruses recovered/attempts” value is on record?
Answer: no change

Question: With B12 as the protein, how does the “other … viruses recovered/attempts” value read?
Answer: no change

Question: Which “other … viruses recovered/attempts” value does the source give for B13 here?
Answer: no change

Question: For B2, which “other … viruses recovered/attempts” value is on record?
Answer: no change

Question: For B14, which “other … viruses recovered/attempts” value is on record?
Answer: no change

Question: With B15 as the protein, how does the “other … viruses recovered/attempts” value read?
Answer: no change

Question: For B16, which “other … viruses recovered/attempts” value is on record?
Answer: no change

Question: With B17 as the protein, how does the “other … viruses recovered/attempts” value read?
Answer: no change

Question: With B18 as the protein, how does the “other … viruses recovered/attempts” value read?
Answer: no change

Question: For B19, which “other … viruses recovered/attempts” value is on record?
Answer: no change

Question: For B5, which “other … viruses recovered/attempts” value is on record?
Answer: no change

Assay: anti-PEDV N immunofluorescence of intestine sections
Details: glycan lost; control: rPEDV-WT

Question: With B1 as the protein, how does the “other: intestinal viral antigen” value read?
Answer: abolishes

Question: Which “other: intestinal viral antigen” value does the source give for B2 here?
Answer: abolishes
